From patent US20140363808, “[…] […] METHOD BASED ON […] WITHOUT TARGET IMMOBILIZATION AND THE […] OBTAINED FROM THE METHOD” (KOREA UNIVERSITY RESEARCH AND BUSINESS FOUNDATION, published 2014)

B1: G54 (ssDNA)
DNA: CGTACGGAATTCGCTAGCGTGGCGGGGCGCGGGTGCCGGAGTTGATGTGGATCCGAGCTCCACGTG
B2: G27 (ssDNA)
DNA: CGTACGGAATTCGCTAGCGGGTGGAGTACGTGGGGGTCATCCTGTGTGGGATCCGAGCTCCACGTG
B3: G26 (ssDNA)
DNA: CGTACGGAATTCGCTAGCATCGGGTGCAGAGTCGGAGCTAACGGCAGCGGATCCGAGCTCCACGTG
B4: G12 (ssDNA)
DNA: CGTACGGAATTCGCTAGCGGGTGCCGTGGCACGAGGCCGTGGTCCAGGGGATCCGAGCTCCACGTG
B5: G4 (ssDNA)
DNA: CGTACGGAATTCGCTAGCGTGATGTGGGGGTACGCTCGTGGCAGGCTTGGATCCGAGCTCCACGTG
B6: G37 (ssDNA)
DNA: CGTACGGAATTCGCTAGCGGGCGATGTGCGGAATGTGGGATTGCGGGTGGATCCGAGCTCCACGTG
B7: G21 (ssDNA)
DNA: CGTACGGAATTCGCTAGCGGGTTCGGGACGGATGAACGTGATAGCTGAGGATCCGAGCTCCACGTG
B8: G9 (ssDNA)
DNA: CGTACGGAATTCGCTAGCGGGGATGGGCCGCTCTGCAGAATGTTCTGTGGATCCGAGCTCCACGTG
B9: G56 (ssDNA)
DNA: CGTACGGAATTCGCTAGCCCGTGGGGTAGCGGGGTCGTGTGATATGTGGATCCGAGCTCCACGTG
B10: G32 (ssDNA)
DNA: CGTACGGAATTCGCTAGCGTGGACTGGCGGAAATCTTGGTATGCCCATGGATCCGAGCTCCACGTG
B11: G15 (ssDNA)
DNA: CGTACGGAATTCGCTAGCAGCCGGCGGGTGCTCAATGTTGGGGGTTGGGATCCGAGCTCCACGTG
B12: G39 (ssDNA)
DNA: CGTACGGAATTCGCTAGCGGTTGCCGTGCGGCGTGCGAGTTGGGCCTTGGATCCGAGCTCCACGTG
B13: G55 (ssDNA)
DNA: CGTACGGAATTCGCTAGCGGACTGGAGTCTAGACCGGGTAGCTGTGGTGGATCCGAGCTCCACGTG
B14: G40 (ssDNA)
DNA: CGTACGGAATTCGCTAGCCGGGGTGGGAACCAGTCTTGCGCGGGTGACGGATCCGAGCTCCACGTG
B15: G35 (ssDNA)
DNA: CGTACGGAATTCGCTAGCGGTGACGGACGTGGGGTGCACGAAGGGAGGGGATCCGAGCTCCACGTG

What follows are binders tested against T1, Nampt (nicotinamide phosphoribosyltransferase) (UniProt P43490 P43490:1-491) (assay: SPR; 200 nM Nampt). Details: tags: AdipoGen AG-40A-0031; chain copies: 2.
T1 sequence (P43490 whole entry, one chain of several): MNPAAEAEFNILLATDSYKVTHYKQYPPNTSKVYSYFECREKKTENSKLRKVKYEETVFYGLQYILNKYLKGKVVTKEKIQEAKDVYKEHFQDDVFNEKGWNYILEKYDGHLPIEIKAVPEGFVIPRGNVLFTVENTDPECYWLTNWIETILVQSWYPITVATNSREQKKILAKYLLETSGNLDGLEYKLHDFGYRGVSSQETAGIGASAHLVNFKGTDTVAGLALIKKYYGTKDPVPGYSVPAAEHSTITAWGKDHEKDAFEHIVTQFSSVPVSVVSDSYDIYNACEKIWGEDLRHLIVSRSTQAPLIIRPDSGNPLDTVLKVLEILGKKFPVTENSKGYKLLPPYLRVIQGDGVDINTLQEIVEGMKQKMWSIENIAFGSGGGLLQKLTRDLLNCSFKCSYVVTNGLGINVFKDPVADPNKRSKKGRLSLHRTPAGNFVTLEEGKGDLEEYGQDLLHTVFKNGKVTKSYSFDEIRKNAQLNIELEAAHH
Protocol: An experiment showing that 15 kinds of aptamers strongly bound to Nampt were not bound to other blood proteins but specifically bound to Nampt only was carried out by immobilizing aptamers onto a gold chip with a surface […] resonance device (SPR).
Firstly, a carboxyl group (—COOH) was formed on a surface of a gold chip with 50 mM of 3,3′-dithiodipropionic acid, and a self-assembly monolayer was formed with EDC/NHS. Then, streptavidin was immobilized thereon, and each aptamer bound to biotin was immobilized. Herein, 200 nM Nampt and the controls, i.e., RBP4, adiponectin, resistin, vaspin, and HAS, were reacted for 30 minutes in respective buffer solutions (100 mM NaCl, 2 mM MgCl₂, 5 mM KCl, 1 mM CaCl₂, and 20 mM Tris-Cl buffer solution containing 0.02% Tween 20, pH 7.6), and non-bound proteins were washed off with the same buffer solutions.

| Binder | binding result |
| --- | --- |
| B1 | binds |
| B2 | binds |
| B3 | binds |
| B4 | binds |
| B5 | binds |
| B6 | binds |
| B7 | binds |
| B8 | binds |
| B9 | binds |
| B10 | binds |
| B11 | binds |
| B12 | binds |

These binders were tested against T1, Nampt (nicotinamide …) (assay: SPR; aptamer immobilized; 100 mM NaCl, 2 mM MgCl2, 5 mM KCl, 1 mM CaCl2, 20 mM Tris, 0.02% Tween 20, pH 7.6). Details: tags: AdipoGen AG-40A-0031; chain copies: 2.
Protocol: (§1) Aptamers G35, G40, and G55 had the highest specificity and binding force among the 15 kinds of aptamers specifically bound to Nampt and produced in Example 1. Binding of these aptamers with respect to Nampt was analyzed. The aptamers were immobilized onto a gold chip in the same manner as described above, and Nampt at various concentrations of 20 nM to 400 nM was reacted for 30 minutes in buffer solutions (100 mM NaCl, 2 mM MgCl₂, 5 mM KCl, 1 mM CaCl₂, and 20 mM Tris-Cl buffer solution containing 0.02% Tween 20, pH 7.6). In order to obtain a dissociation constant, each reaction level was plotted by a nonlinear regression method and a single site saturation ligand binding method with Graphpad Prism 5.0. In this case, the equation Y=Bₘₐₓ*X̂h/(Kd̂h+X̂h) was used (y represents a saturation degree, Bₘₐₓ represents a maximal binding site, Kd represents a dissociation constant, X represents non-bound Nampt, and h represents a hill slope constant).

| Binder | Kd [nM] |
| --- | --- |
| B13 | 71.7 |

What follows are binders tested against T1, Nampt (nicotinamide …) (assay: SPR; aptamer immobilized; same buffer pH 7.6). Details: tags: AdipoGen AG-40A-0031; chain copies: 2.
Protocol: as §1

| Binder | Kd [nM] |
| --- | --- |
| B14 | 114 |
| B15 | 117 |
